Data reported in patent US20220204580A1 (AstraZeneca / MedImmune, published 2022).
Numbered stars: 1 amine (or outer) side, 2 acyl side, 3 side chain; on linkers, the order of the positions; unused ones are H or OH. Bridge positions count the residues as written; N and C are the ends. Square brackets hold non-standard residues; d marks the D form. Side chains are listed from the residue outwards. Ends that are not written are not given here. * marks the point of attachment. C20 diacid = O=C(O)CCCCCCCCCCCCCCCCCCC(=O)*; C18 diacid = O=C(O)CCCCCCCCCCCCCCCCC(=O)*; γGlu = O=C(O)[C@H](CCC(=O)[*:2])N[*:1]; αMeF = C[C@](N)(Cc1ccccc1)C(=O)O; AEEA = NCCOCCOCC(=O)O

B1: Peptide 115 (SEQ ID NO: 115) (peptide)
peptide: K([γGlu-γGlu-C20 diacid])CNTATCATQRLANFLVHSSPNFPAILSPTNVGSNTY-NH2
modifications: disulfide 2-7; N-terminus assumed
SMILES: CC[C@H](C)[C@H](NC(=O)[C@H](C)NC(=O)[C@@H]1CCCN1C(=O)[C@H](Cc1ccccc1)NC(=O)[C@H](CC(N)=O)NC(=O)[C@@H]1CCCN1C(=O)[C@H](CO)NC(=O)[C@H](CO)NC(=O)[C@H](Cc1c[nH]cn1)NC(=O)[C@@H](NC(=O)[C@H](CC(C)C)NC(=O)[C@H](Cc1ccccc1)NC(=O)[C@H](CC(N)=O)NC(=O)[C@H](C)NC(=O)[C@H](CC(C)C)NC(=O)[C@H](CCCNC(=N)N)NC(=O)[C@H](CCC(N)=O)NC(=O)[C@@H](NC(=O)[C@H](C)NC(=O)[C@@H]1CSSC[C@H](NC(=O)[C@@H](N)CCCCNC(=O)CC[C@H](NC(=O)CC[C@H](NC(=O)CCCCCCCCCCCCCCCCCCC(=O)O)C(=O)O)C(=O)O)C(=O)N[C@@H](CC(N)=O)C(=O)N[C@@H]([C@@H](C)O)C(=O)N[C@@H](C)C(=O)N[C@@H]([C@@H](C)O)C(=O)N1)[C@@H](C)O)C(C)C)C(=O)N[C@@H](CC(C)C)C(=O)N[C@@H](CO)C(=O)N1CCC[C@H]1C(=O)N[C@H](C(=O)N[C@@H](CC(N)=O)C(=O)N[C@H](C(=O)NCC(=O)N[C@@H](CO)C(=O)N[C@@H](CC(N)=O)C(=O)N[C@H](C(=O)N[C@@H](Cc1ccc(O)cc1)C(N)=O)[C@@H](C)O)C(C)C)[C@@H](C)O
B2: Peptide 114 (SEQ ID NO: 114) (peptide)
peptide: K([γGlu-γGlu-C20 diacid])CNTATCATQRLANFLVHSSNNFGPILPPTNVGSRTY-NH2
modifications: disulfide 2-7; N-terminus assumed
SMILES: CC[C@H](C)[C@H](NC(=O)[C@@H]1CCCN1C(=O)CNC(=O)[C@H](Cc1ccccc1)NC(=O)[C@H](CC(N)=O)NC(=O)[C@H](CC(N)=O)NC(=O)[C@H](CO)NC(=O)[C@H](CO)NC(=O)[C@H](Cc1c[nH]cn1)NC(=O)[C@@H](NC(=O)[C@H](CC(C)C)NC(=O)[C@H](Cc1ccccc1)NC(=O)[C@H](CC(N)=O)NC(=O)[C@H](C)NC(=O)[C@H](CC(C)C)NC(=O)[C@H](CCCNC(=N)N)NC(=O)[C@H](CCC(N)=O)NC(=O)[C@@H](NC(=O)[C@H](C)NC(=O)[C@@H]1CSSC[C@H](NC(=O)[C@@H](N)CCCCNC(=O)CC[C@H](NC(=O)CC[C@H](NC(=O)CCCCCCCCCCCCCCCCCCC(=O)O)C(=O)O)C(=O)O)C(=O)N[C@@H](CC(N)=O)C(=O)N[C@@H]([C@@H](C)O)C(=O)N[C@@H](C)C(=O)N[C@@H]([C@@H](C)O)C(=O)N1)[C@@H](C)O)C(C)C)C(=O)N[C@@H](CC(C)C)C(=O)N1CCC[C@H]1C(=O)N1CCC[C@H]1C(=O)N[C@H](C(=O)N[C@@H](CC(N)=O)C(=O)N[C@H](C(=O)NCC(=O)N[C@@H](CO)C(=O)N[C@@H](CCCNC(=N)N)C(=O)N[C@H](C(=O)N[C@@H](Cc1ccc(O)cc1)C(N)=O)[C@@H](C)O)C(C)C)[C@@H](C)O
B3: Peptide 12 (SEQ ID NO: 12) (peptide)
peptide: K([γGlu-C18 diacid])KCNTATCATQRLAEFLRHSSNN[αMeF]GPILPPTNVGSNTY-NH2
modifications: disulfide 3-8; N-terminus assumed
SMILES: CC[C@H](C)[C@H](NC(=O)[C@@H]1CCCN1C(=O)CNC(=O)[C@](C)(Cc1ccccc1)NC(=O)[C@H](CC(N)=O)NC(=O)[C@H](CC(N)=O)NC(=O)[C@H](CO)NC(=O)[C@H](CO)NC(=O)[C@H](Cc1c[nH]cn1)NC(=O)[C@H](CCCNC(=N)N)NC(=O)[C@H](CC(C)C)NC(=O)[C@H](Cc1ccccc1)NC(=O)[C@H](CCC(=O)O)NC(=O)[C@H](C)NC(=O)[C@H](CC(C)C)NC(=O)[C@H](CCCNC(=N)N)NC(=O)[C@H](CCC(N)=O)NC(=O)[C@@H](NC(=O)[C@H](C)NC(=O)[C@@H]1CSSC[C@H](NC(=O)[C@H](CCCCN)NC(=O)[C@@H](N)CCCCNC(=O)CC[C@H](NC(=O)CCCCCCCCCCCCCCCCC(=O)O)C(=O)O)C(=O)N[C@@H](CC(N)=O)C(=O)N[C@@H]([C@@H](C)O)C(=O)N[C@@H](C)C(=O)N[C@@H]([C@@H](C)O)C(=O)N1)[C@@H](C)O)C(=O)N[C@@H](CC(C)C)C(=O)N1CCC[C@H]1C(=O)N1CCC[C@H]1C(=O)N[C@H](C(=O)N[C@@H](CC(N)=O)C(=O)N[C@H](C(=O)NCC(=O)N[C@@H](CO)C(=O)N[C@@H](CC(N)=O)C(=O)N[C@H](C(=O)N[C@@H](Cc1ccc(O)cc1)C(N)=O)[C@@H](C)O)C(C)C)[C@@H](C)O
B4: Peptide 116 (SEQ ID NO: 116) (peptide)
peptide: K([γGlu-γGlu-C20 diacid])CNTATCATQRLAEFLRHSSNNFGPILPPTNVGSNTY-NH2
modifications: disulfide 2-7; N-terminus assumed
SMILES: CC[C@H](C)[C@H](NC(=O)[C@@H]1CCCN1C(=O)CNC(=O)[C@H](Cc1ccccc1)NC(=O)[C@H](CC(N)=O)NC(=O)[C@H](CC(N)=O)NC(=O)[C@H](CO)NC(=O)[C@H](CO)NC(=O)[C@H](Cc1c[nH]cn1)NC(=O)[C@H](CCCNC(=N)N)NC(=O)[C@H](CC(C)C)NC(=O)[C@H](Cc1ccccc1)NC(=O)[C@H](CCC(=O)O)NC(=O)[C@H](C)NC(=O)[C@H](CC(C)C)NC(=O)[C@H](CCCNC(=N)N)NC(=O)[C@H](CCC(N)=O)NC(=O)[C@@H](NC(=O)[C@H](C)NC(=O)[C@@H]1CSSC[C@H](NC(=O)[C@@H](N)CCCCNC(=O)CC[C@H](NC(=O)CC[C@H](NC(=O)CCCCCCCCCCCCCCCCCCC(=O)O)C(=O)O)C(=O)O)C(=O)N[C@@H](CC(N)=O)C(=O)N[C@@H]([C@@H](C)O)C(=O)N[C@@H](C)C(=O)N[C@@H]([C@@H](C)O)C(=O)N1)[C@@H](C)O)C(=O)N[C@@H](CC(C)C)C(=O)N1CCC[C@H]1C(=O)N1CCC[C@H]1C(=O)N[C@H](C(=O)N[C@@H](CC(N)=O)C(=O)N[C@H](C(=O)NCC(=O)N[C@@H](CO)C(=O)N[C@@H](CC(N)=O)C(=O)N[C@H](C(=O)N[C@@H](Cc1ccc(O)cc1)C(N)=O)[C@@H](C)O)C(C)C)[C@@H](C)O

What was measured:
Assay in all cases: cell-based or functional assay
[1] = target: T1, human amylin receptor (calcitonin receptor co-expressed with receptor activity modifying protein, RAMP3) (human, UniProt P30988 25-474; O60896 24-148)
T1 sequence (looked up) 1: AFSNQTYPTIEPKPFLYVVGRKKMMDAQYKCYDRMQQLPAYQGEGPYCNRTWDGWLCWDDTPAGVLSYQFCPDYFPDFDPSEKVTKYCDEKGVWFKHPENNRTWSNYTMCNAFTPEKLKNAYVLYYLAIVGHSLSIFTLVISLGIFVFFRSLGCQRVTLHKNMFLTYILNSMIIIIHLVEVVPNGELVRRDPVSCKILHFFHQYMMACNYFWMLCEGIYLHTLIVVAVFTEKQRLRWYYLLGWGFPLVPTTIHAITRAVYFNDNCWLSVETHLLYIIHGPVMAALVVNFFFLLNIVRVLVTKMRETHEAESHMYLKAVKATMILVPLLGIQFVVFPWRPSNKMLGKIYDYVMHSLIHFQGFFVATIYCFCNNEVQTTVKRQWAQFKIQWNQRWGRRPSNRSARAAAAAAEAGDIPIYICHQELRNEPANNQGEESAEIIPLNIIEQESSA
T1 sequence (looked up) 2: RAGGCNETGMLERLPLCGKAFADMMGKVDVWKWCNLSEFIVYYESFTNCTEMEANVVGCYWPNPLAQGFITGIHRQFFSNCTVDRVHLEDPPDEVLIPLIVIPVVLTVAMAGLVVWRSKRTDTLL

[2] = target: T2, human calcitonin receptor (human, UniProt P30988 25-474)
T2 sequence (looked up): T1 sequence (looked up) 1

[3] = target: T3, rat amylin receptor (calcitonin receptor co-expressed with receptor activity modifying protein, RAMP3) (rat, UniProt P32214 25-516; Q9JJ73 23-147)
T3 sequence (looked up) 1: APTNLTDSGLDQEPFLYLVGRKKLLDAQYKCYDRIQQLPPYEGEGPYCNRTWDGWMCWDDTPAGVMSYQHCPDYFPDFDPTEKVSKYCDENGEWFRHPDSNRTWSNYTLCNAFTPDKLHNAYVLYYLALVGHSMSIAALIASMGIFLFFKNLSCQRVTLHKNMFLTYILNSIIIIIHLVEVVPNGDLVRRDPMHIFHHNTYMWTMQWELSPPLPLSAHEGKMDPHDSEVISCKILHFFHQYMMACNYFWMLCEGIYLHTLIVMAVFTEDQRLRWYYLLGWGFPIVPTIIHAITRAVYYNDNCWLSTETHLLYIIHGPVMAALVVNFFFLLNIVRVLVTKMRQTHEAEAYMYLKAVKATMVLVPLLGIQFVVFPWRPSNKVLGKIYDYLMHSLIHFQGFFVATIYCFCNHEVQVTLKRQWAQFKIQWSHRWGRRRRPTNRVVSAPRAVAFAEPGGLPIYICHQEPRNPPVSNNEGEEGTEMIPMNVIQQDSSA
T3 sequence (looked up) 2: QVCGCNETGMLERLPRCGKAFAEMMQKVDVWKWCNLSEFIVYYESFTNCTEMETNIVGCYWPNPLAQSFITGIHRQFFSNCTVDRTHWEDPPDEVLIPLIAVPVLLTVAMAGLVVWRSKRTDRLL

rat calcitonin receptor = target: T4, rat calcitonin receptor (rat, UniProt P32214 25-516)
T4 sequence (looked up): T3 sequence (looked up) 1

Row | Binder | EC50 (cAMP production) [1] | Ratio (EC50 hCTR / EC50 hAMYR3) [1] | EC50 (cAMP production) [2] | EC50 (cAMP production) [3] | EC50 (cAMP production) (rat calcitonin receptor)
1 | {C20 diacid-γGlu-AEEA-AEEA}-KCNTATCATQRLANFLVHSSNNFGPILPPTNVGSNTY-NH2 (disulfide 2-7) [Peptide 113 (SEQ ID NO: 113)] | 1170 pM | 16 | 18.5 nM | 32.6 pM | 10.4 nM
2 | B1 | 703 pM | 11 | 7.65 nM | 22.6 pM | 22.6 nM
3 | B2 | 1320 pM | 12 | 15.8 nM | 12.2 pM | 4.87 nM
4 | B3 | 158 pM | 8 | 1.22 nM | 5 pM | 0.107 nM
5 | {C20 diacid-γGlu}-KCNTATCATQRLANFLVHSSNNFGPILPPTNVGSNTY-NH2 (disulfide 2-7) [Peptide 112 (SEQ ID NO: 112)] | 861 pM | 2 | 1.33 nM | 16 pM | 0.259 nM
6 | B4 | 1210 pM | 8 | 9.56 nM | 23.7 pM | 9.05 nM
